In patent publication US20230355708A1 (priority 2020, published 2023):
Entries after “also recorded” stand apart in the source; their conditions may differ.

B1: CVN: lectin cyanovirin-N, SEQ ID NO:1 (protein)
chain: LGKFSQTCYNSAIQGSVLTSTCERTNGGYNTSSIDLNSVIENVDGSLKWQPSNFIETCRNTQLAGSSELAAECKTRAQQFVSTKINLDDHIANIDGTLKYE
B2: P51G-CVN: mutant CVN wherein Pro 51 is mutated to Gly, SEQ ID NO:3 (protein)
chain: LGKFSQTCYNSAIQGSVLTSTCERTNGGYNTSSIDLNSVIENVDGSLKWQGSNFIETCRNTQLAGSSELAAECKTRAQQFVSTKINLDDHIANIDGTLKYE

What was measured:
[1] = biological target: gp120 (Human immunodeficiency virus type 1 group M subtype B, UniProt P35961); conditions: SPR
[2] = test system: SARS-CoV-2 pseudoviruses; type: cell-based
[3] = biological target: receptor binding domain (RBD) (Severe acute respiratory syndrome coronavirus 2, UniProt P0DTC2)
[4] = test system: SARS-CoV-2 pseudoviruses; type: cell-based; remark: listed apart in the source
[5] = biological target: SARS-CoV-2 spike S1 subunit (Severe acute respiratory syndrome coronavirus 2, UniProt P0DTC2)
[6] = biological target: SARS-CoV-2 spike S2 subunit (Severe acute respiratory syndrome coronavirus 2, UniProt P0DTC2)
[7] = test system: SARS-CoV-1 pseudoviruses
[8] = test system: HIV-1 pseudovirus; type: cell-based
[9] = test system: HIV-1 pseudovirus
[10] = test system: SARS-CoV-2 pseudoviruses
[11] = test system: Env Neg pseudovirus
[12] = test system: SARS-CoV-1 pseudoviruses; type: cell-based
[13] = test system: SARS-CoV-1 pseudoviruses; type: cell-based; remark: listed apart in the source

Molecule | binding to gp120 [1] | inhibition of SARS-CoV-2 pseudovirus infection [2] | binding to receptor binding domain (RBD) [3] | irreversible inactivation of SARS-CoV-2 [4] | binding of S1 to lectin [5] | stability of lectin-S2 complexes [6] | stoichiometry of binding, S2 versus S1 [6] | virolysis of SARS-CoV-1 pseudoviruses [7] | inhibition of HIV-1 infection [8] | virolysis of HIV-1 [9] | virolysis of SARS-CoV-2 pseudoviruses [10] | virolysis of Env Neg pseudovirus [11] | inhibition of SARS-CoV-1 pseudovirus infection [12] | irreversible inactivation of SARS-CoV-1 [13] | binding to S1 subunit [5] | binding to S2 subunit [6]
B1 | occurred | inhibited infection at nanomolar potencies | no binding | irreversible inactivation | Relatively lower binding | very stable | higher to the S2 subunit | no virolytic effect | inhibition | no virolytic effect | more potent than CVN-DLI; also recorded: capable of causing cell-free virolysis | no virolytic effect | inhibition | irreversible inactivation |  | 
B2 |  | decreased inhibition of infection |  |  |  |  |  |  |  |  | reduced virolysis |  |  |  | reduced affinity as compared to CVN | reduced affinity as compared to CVN
